The values below are quoted from earlier work in paper PMC12083247.

As a reminder, the Kd is the concentration at which binding is half-saturated. The Ki is the equilibrium dissociation constant of an inhibitor or competing ligand from its target.

One data set concerns the target S100A10 (Homo sapiens) (UniProt P60903).
In another data set the target is calpain (Homo sapiens) (UniProt P07384).
Sequence of UniProt P07384 (P07384 2-714): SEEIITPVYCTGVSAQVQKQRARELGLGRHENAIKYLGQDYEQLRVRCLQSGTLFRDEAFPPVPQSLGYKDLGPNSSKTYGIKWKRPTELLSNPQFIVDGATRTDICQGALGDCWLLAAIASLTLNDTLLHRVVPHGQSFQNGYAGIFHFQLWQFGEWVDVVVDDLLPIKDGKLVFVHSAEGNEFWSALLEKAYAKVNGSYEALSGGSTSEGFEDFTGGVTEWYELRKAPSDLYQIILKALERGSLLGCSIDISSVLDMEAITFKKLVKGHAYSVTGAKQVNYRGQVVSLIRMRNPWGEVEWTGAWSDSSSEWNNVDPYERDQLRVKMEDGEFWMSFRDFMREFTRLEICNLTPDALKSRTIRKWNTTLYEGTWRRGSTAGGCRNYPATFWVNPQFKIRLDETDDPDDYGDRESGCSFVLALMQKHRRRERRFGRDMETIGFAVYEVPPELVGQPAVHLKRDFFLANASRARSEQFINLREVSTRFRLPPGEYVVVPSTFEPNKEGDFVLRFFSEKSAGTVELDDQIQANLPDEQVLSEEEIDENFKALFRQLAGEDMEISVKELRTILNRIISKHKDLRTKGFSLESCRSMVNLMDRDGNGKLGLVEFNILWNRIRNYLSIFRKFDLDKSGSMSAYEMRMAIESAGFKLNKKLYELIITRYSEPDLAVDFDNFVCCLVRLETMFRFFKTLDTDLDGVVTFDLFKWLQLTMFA

Sequence of UniProt P60903 (P60903 whole entry): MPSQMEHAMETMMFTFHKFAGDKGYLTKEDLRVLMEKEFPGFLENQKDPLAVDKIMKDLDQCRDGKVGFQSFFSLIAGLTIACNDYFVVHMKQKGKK

With “annexin A2 N-terminal 10-12 residues (from UniProt P07355)”, the Kd with S100A10 (Homo sapiens) is 13 nM. As for “calpastatin domain I (from UniProt P20810)”, the inhibition constant Ki in the data set with calpain (Homo sapiens) is 15 nM.
